Laboratory results reported in the supplement of paper PMC10724198.
± gives the standard deviation of the averaged measurements.

Key:
Saccharomyces cerevisiae [1] = assay: protein stability index of tFT-peptide fusion (C-terminal peptide) (PSI (0-1 scale)); higher = more stable (slower turnover); conditions: genetic background: wild type; temperature: 30 C
Saccharomyces cerevisiae [2] = assay: as above
Experimental: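 MPS profiling in S. cerevisiae of the tFT-X12 degron library: putative degron peptides plus stable controls, 12 aa, fused to the C-terminus of a sfGFP-mCherry timer. Cells are FACS-sorted into 8 mCherry/sfGFP bins and deep-sequenced. PSI runs from 0 (unstable) to 1 (stable). Backgrounds are wild type, das1Δ and doa10Δ at 30 °C, and wild type, das1Δ, cdc34-1 and cdc53-1 at 37 °C; 2-3 technical replicates each.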

[3] = genetic background: cdc34-1, temperature: 37 C
[4] = genetic background: cdc53-1, temperature: 37 C
[5] = genetic background: das1 deletion, temperature: 30 C
[6] = genetic background: das1 deletion, temperature: 37 C
[7] = genetic background: doa10 deletion, temperature: 30 C
[8] = genetic background: wild type, temperature: 30 C
[9] = genetic background: wild type, temperature: 37 C
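Also: PSI is a weighted mean of sequencing reads over stability bins, variants kept only with over 10 reads, mCherry proximal and sfGFP distal, peptide attached via GGGS linker.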

Sequence | protein stability index (Saccharomyces cerevisiae [1]) | protein stability index (Saccharomyces cerevisiae [2]; [3]) | protein stability index (Saccharomyces cerevisiae [2]; [4]) | protein stability index (Saccharomyces cerevisiae [2]; [5]) | protein stability index (Saccharomyces cerevisiae [2]; [6]) | protein stability index (Saccharomyces cerevisiae [2]; [7]) | protein stability index (Saccharomyces cerevisiae [2]; [8]) | protein stability index (Saccharomyces cerevisiae [2]; [9])
VFMTLHCITIYK | 0.458 ± 0.0029 | 0.452 ± 0.016 | 0.537 ± 0.068 | 0.379 ± 0.029 | 0.519 ± 0.052 | 0.338 ± 0.0065 | 0.348 ± 0.051 | 0.547 ± 0.0084
VSCFIVSFWVFL | 0.471 ± 0.012 | 0.389 ± 0.0086 | 0.461 ± 0.033 | 0.355 ± 0.02 | 0.546 ± 0.008 | 0.309 ± 0.034 | 0.323 ± 0.031 | 0.495 ± 0.052
LLPFSLLDLLLC | 0.488 ± 0.066 | 0.658 ± 0.028 | 0.707 ± 0.021 | 0.58 ± 0.028 | 0.681 ± 0.016 | 0.361 ± 0.029 | 0.404 ± 0.017 | 0.607 ± 0.0088
SYCFCCCVLFWG | 0.407 ± 0.026 | 0.432 ± 0.019 | 0.517 ± 0.011 | 0.352 ± 0.028 | 0.559 ± 0.056 | 0.325 ± 0.011 | 0.357 ± 0.017 | 0.502 ± 0.018
SWTAYSYQWVFF | 0.128 ± 0.014 | 0.407 ± 0.025 | 0.57 ± 0.0072 | 0.4972 ± 0.0028 | 0.577 ± 0.016 | 0.0469 ± 0.0093 | 0.0403 ± 0.018 | 0.215 ± 0.031
GEVLWAVLLVSC | 0.299 ± 0.0047 | 0.1782 ± 0.00065 | 0.208 ± 0.016 | 0.215 ± 0.029 | 0.343 ± 0.0077 | 0.164 ± 0.023 | 0.198 ± 0.038 | 0.3 ± 0.0077
SVECLCLFVACR | 0.259 ± 0.013 | 0.1923 ± 0.00067 | 0.254 ± 0.0049 | 0.193 ± 0.026 | 0.3432 ± 0.0011 | 0.155 ± 0.0075 | 0.184 ± 0.025 | 0.288 ± 0.0032
NCMGLLMPLLIT | 0.353 ± 0.0039 | 0.437 ± 0.024 | 0.391 ± 0.0086 | 0.378 ± 0.039 | 0.504 ± 0.019 | 0.2688 ± 0.00028 | 0.254 ± 0.037 | 0.382 ± 0.012
KKKEILVYIIQE | 0.484 ± 0.014 | 0.598 ± 0.036 | 0.612 ± 0.024 | 0.438 ± 0.029 | 0.578 ± 0.018 | 0.4732 ± 0.0016 | 0.512 ± 0.077 | 0.592 ± 0.02
VRELGVGGWRRQ | 0.283 ± 0.01 | 0.58 ± 0.08 | 0.7 ± 0.0064 | 0.619 ± 0.016 | 0.752 ± 0.004 | 0.11 ± 0.012 | 0.129 ± 0.012 | 0.405 ± 0.0063
INHVIHAKLRFS | 0.237 ± 0.066 | 0.629 ± 0.015 | 0.675 ± 0.082 | 0.643 ± 0.011 | 0.72 ± 0.03 | 0.11 ± 0.026 | 0.13 ± 0.03 | 0.249 ± 0.075
LLVFSLLRPFLF | 0.501 ± 0.016 | 0.615 ± 0.072 | 0.643 ± 0.018 | 0.567 ± 0.039 | 0.6602 ± 0.0048 | 0.414 ± 0.028 | 0.417 ± 0.023 | 0.5623 ± 0.003
WSHVPLAPLSCF | 0.4567 ± 0.0039 | 0.43 ± 0.017 | 0.442 ± 0.0048 | 0.337 ± 0.023 | 0.477 ± 0.0073 | 0.287 ± 0.0032 | 0.315 ± 0.023 | 0.42596 ± 0.00033
AFPVGFLVGLVV | 0.431 ± 0.0065 | 0.4381 ± 0.0028 | 0.469 ± 0.011 | 0.345 ± 0.024 | 0.499 ± 0.0067 | 0.319 ± 0.0075 | 0.348 ± 0.021 | 0.4647 ± 0.0044
VFSCFLFLVVLV | 0.242 ± 0.0034 | 0.129 ± 0.048 | 0.104 ± 0.011 | 0.205 ± 0.035 | 0.283 ± 0.023 | 0.279 ± 0.012 | 0.169 ± 0.019 | 0.2247 ± 0.0019
RYKIEKKKLMNN | 0.42 ± 0.038 | 0.667 ± 0.019 | 0.741 ± 0.18 | 0.602 ± 0.01 | 0.7361 ± 0.003 | 0.182 ± 0.0036 | 0.235 ± 0.035 | 0.448 ± 0.048
FIPPRTYCLMIG | 0.323 ± 0.024 | 0.57632 ± 0.00037 | 0.682 ± 0.0096 | 0.58 ± 0.0063 | 0.693 ± 0.011 | 0.219 ± 0.0046 | 0.233 ± 0.026 | 0.297 ± 0.015
TGGGGRVSLGVG | – | 0.359 ± 0.066 | 0.416 ± 0.0099 | 0.356 ± 0.013 | 0.42 ± 0.0044 | 0.377 ± 0.0077 | 0.359 ± 0.016 | 0.413 ± 0.0088

Sequence | protein stability index (Saccharomyces cerevisiae [1]) | protein stability index (Saccharomyces cerevisiae [2]; [3]) | protein stability index (Saccharomyces cerevisiae [2]; [4]) | protein stability index (Saccharomyces cerevisiae [2]; [5]) | protein stability index (Saccharomyces cerevisiae [2]; [6]) | protein stability index (Saccharomyces cerevisiae [2]; [7]) | protein stability index (Saccharomyces cerevisiae [2]; [8]) | protein stability index (Saccharomyces cerevisiae [2]; [9])
GGVVLVVVFCCV | 0.42 ± 0.13 | 0.165 ± 0.0053 | 0.34 ± 0.02 | 0.217 ± 0.025 | 0.352 ± 0.01 | 0.18 ± 0.015 | 0.204 ± 0.029 | 0.3395 ± 0.00053
SSCFLLFRVVWR | 0.367 ± 0.011 | 0.285 ± 0.01 | 0.321 ± 0.0088 | 0.257 ± 0.03 | 0.436 ± 0.0013 | 0.292 ± 0.005 | 0.244 ± 0.026 | 0.412 ± 0.016
VLWSCCGGVRVR | 0.516 ± 0.036 | 0.587 ± 0.014 | 0.629 ± 0.013 | 0.465 ± 0.023 | 0.65 ± 0.022 | 0.452 ± 0.03 | 0.483 ± 0.0067 | 0.612 ± 0.018
IVVWCGIRYSIR | 0.366 ± 0.032 | 0.328 ± 0.005 | 0.415 ± 0.055 | 0.263 ± 0.035 | 0.484 ± 0.0071 | 0.233 ± 0.013 | 0.262 ± 0.029 | 0.459 ± 0.0096
LCVWRRAIVWVG | 0.137 ± 0.039 | 0.363 ± 0.038 | 0.4573 ± 0.0015 | 0.352 ± 0.025 | 0.512 ± 0.007 | 0.0712 ± 0.011 | 0.0818 ± 0.021 | 0.0815 ± 0.0071
SVFVVVVLVFWY | 0.269 ± 0.0066 | 0.221 ± 0.042 | 0.3 ± 0.039 | 0.22 ± 0.029 | 0.33 ± 0.024 | 0.211 ± 0.018 | 0.22 ± 0.029 | 0.316 ± 0.016
EKKKKKRKNKIK | – | 0.691 ± 0.0098 | 0.727 ± 0.037 | 0.655 ± 0.024 | 0.7221 ± 0.0038 | 0.649 ± 0.016 | 0.652 ± 0.025 | 0.661 ± 0.028
CVMWFLLSAYYL | 0.386 ± 0.061 | 0.358 ± 0.019 | 0.4288 ± 0.0029 | 0.265 ± 0.037 | 0.4336 ± 0.002 | 0.285 ± 0.013 | 0.267 ± 0.042 | 0.457 ± 0.042
VFFRCVCCLSVF | 0.307 ± 0.026 | 0.388 ± 0.029 | 0.408 ± 0.042 | 0.327 ± 0.024 | 0.412 ± 0.014 | 0.2533 ± 0.00085 | 0.264 ± 0.015 | 0.352 ± 0.007
APPHPPPATFLS | – | 0.643 ± 0.014 | 0.732 ± 0.022 | 0.685 ± 0.019 | 0.721 ± 0.0092 | 0.326 ± 0.032 | 0.357 ± 0.026 | 0.574 ± 0.012
PFFSSLKYRRDH | 0.237 ± 0.051 | 0.598 ± 0.07 | 0.751 ± 0.014 | 0.6675 ± 0.0032 | 0.77 ± 0.02 | 0.117 ± 0.024 | 0.142 ± 0.023 | 0.197 ± 0.014
LCSLSIFVLFSC | 0.25 ± 0.005 | 0.192 ± 0.015 | 0.309 ± 0.027 | 0.209 ± 0.036 | 0.381 ± 0.0064 | 0.141 ± 0.0032 | 0.147 ± 0.017 | 0.272 ± 0.018
SFSIPILLLAFP | 0.425 ± 0.006 | 0.264 ± 0.018 | 0.2229 ± 0.00014 | 0.311 ± 0.022 | 0.409 ± 0.011 | 0.451 ± 0.026 | 0.314 ± 0.021 | 0.3719 ± 0.0017
FLWLCLLSLFFR | 0.481 ± 0.018 | 0.454 ± 0.069 | 0.383 ± 0.035 | 0.436 ± 0.018 | 0.548 ± 0.017 | 0.547 ± 0.01 | 0.434 ± 0.0099 | 0.498 ± 0.031
VFFVLIFLLFLF | 0.421 ± 0.011 | 0.438 ± 0.025 | 0.448 ± 0.03 | 0.4 ± 0.03 | 0.46 ± 0.012 | 0.41 ± 0.0085 | 0.353 ± 0.05 | 0.469 ± 0.0008
LLLRWWLYSCCP | 0.42 ± 0.034 | 0.411 ± 0.027 | 0.495 ± 0.012 | 0.324 ± 0.032 | 0.4667 ± 0.0026 | 0.319 ± 0.016 | 0.328 ± 0.017 | 0.478 ± 0.012
RLFVRIQLSLLF | 0.351 ± 0.0049 | 0.313 ± 0.036 | 0.351 ± 0.012 | 0.31 ± 0.025 | 0.398 ± 0.0092 | 0.33 ± 0.0035 | 0.265 ± 0.033 | 0.3506 ± 0.00077
VILYCSNVAVCS | 0.294 ± 0.0038 | 0.355 ± 0.048 | 0.42 ± 0.013 | 0.246 ± 0.019 | 0.4263 ± 0.0013 | 0.212 ± 0.004 | 0.248 ± 0.023 | 0.399 ± 0.011
